Reference: PMC12133150

Target: TET2 (UniProt Q6N021)
Test: co-IP of transfected HNF4α with TET2
Details: reference: wild type; sites S313

- binding against the reference: stronger
Substance: HNF4α (from UniProt P41235) S313A
